Assay results taken from patent publication US20210340516A1, “COMPOSITIONS CONTAINING ARGINASE 1 FOR THE TREATMENT OF NEUROVASCULAR AND RETINAL VASCULAR DISORDERS” (Augusta University Research Institute, Inc., priority 2020, published 2021).

What was measured:
[1] = test system: OIR retinas (TNFα, IL-6, MCP1, iNOS, A1, FGF2, CNTF, IL-10 mRNA); test: OIR mouse model: qPCR of retinal inflammation markers and growth factors; type: in vivo
Experimental: PBS was used as vehicle control. Pups were anesthetized before treatment by intraperitoneal (i.p.) injection of ketamine/xylazine mixture. Intravitreal injections were performed using a 36-gauge NanoFil needle mounted to a 10-μL Hamilton syringe (World Precision Instruments). Two treatment strategies were employed. […] The P9 time point was selected based on the fact that vaso-obliteration occurs within the first 48 hours of hyperoxia treatment (Connor, et al., Nature Protocols, 4:1565-1573 (2009); Lange, et al., Graefe's archive for clinical and experimental ophthalmology, 247:1205-1211 (2009); Gu, et al., Investigative ophthalmology & visual science, 43:496-502 (2002)).
However, variability was relatively high in the OIR retinas and this protective effect was statistically significant only for TNFα.

[2] = Retinal ischemia-reperfusion (IR) injury: PEG-A1 penetration of the blood-retina barrier (anti-PEG Western blot, flat-mount immunolabeling); type: in vivo, mouse
Experimental: (§1) Mouse retinal ischemia-reperfusion (IR) injury and traumatic optic neuropathy (TON) models: All experiments were performed in accordance with the ARVO Statement for the Use of Animals in Ophthalmic and Vision Research and were approved by the institutional animal care and use committee (Animal Welfare Assurance no. D16-00197). Wild-type (WT) C57BL/6J mice (10-12 weeks old) were anesthetized using ketamine/xylazine mixture then subjected to retinal ischemia-reperfusion (IR) injury or optic nerve crush (ONC) to model traumatic optic neuropathy (TON) as described in Shosha, et al., Cell death & disease, 7:e2483-e (2016) and Xu, et al., Frontiers in Neuroscience, 12:970 (2018). Mice were sacrificed at 24 hours or 7 days after by deep anesthesia followed by trans-cardial perfusion with PBS or thoracotomy and eyeballs were collected and fixed in 4% PFA for immunolabeling or retinas were extracted without fixation and homogenized in Radioimmunoprecipitation Assay (RIPA) lysis buffer for Western blotting.
Western blotting: Western blotting on retina or brain was conducted as described in Fouda, A Y, et al., Cell death & Disease, 9:1001 (2018). Membranes were probed with anti-PEG (RevMAb Biosciences, 1:1000) and anti-albumin (Bethyl Laboratories, 1:5000). Uncropped blots are included in FIG. 22.
Fluorescent immunolabeling: Retinal flat-mounts were permeabilized and immunolabeled with anti-PEG antibody (RevMAb Biosciences, 1:400) and co-stained with Alex594-labeled Griffonia simplicifolia isolectin B4 (1:200; Invitrogen) as described in Shosha, et al., Cell death & disease, 7:e2483-e (2016).
Mice were deeply anesthetized and sacrificed 24 hours later by trans-cardial perfusion with PBS (FIG. 16A). […] These mice were sacrificed at day 7 without trans-cardial perfusion and retina flat-mounts were immunolabeled to show PEG distribution within the retina (FIG. 16D).
PEG-A1 treatment in acute retinal and brain injury mouse models: A pharmaceutical grade of PEG-A1 was provided as a kind gift from Bio-Cancer Treatment International Limited (BCT, Hong Kong). […] Methoxy polyethylene glycol propionic acid (MW 5,000—Sigma, Catalog number 88908-1G-F) was used as vehicle control.

[3] = Optic nerve crush (ONC) model: PEG-A1 penetration (Western blot, flat-mount immunolabeling); type: in vivo, mouse; conditions: Western blot at 24 hours, flat-mount immunolabeling at 7 days
Experimental: as §1
Western blotting: Western blotting on retina or brain was conducted as described in Fouda, A Y, et al., Cell death & Disease, 9:1001 (2018). Membranes were probed with anti-PEG (RevMAb Biosciences, 1:1000) and anti-albumin (Bethyl Laboratories, 1:5000). Uncropped blots are included in FIG. 22. […]

[4] = test system: retinal explants; test: Ex vivo retinal explants subjected to OGD/R, NeuN flat-mount staining; type: cell-based, mouse; conditions: 3 hours OGD/21 hours reoxygenation, treated at reoxygenation; untreated 55%, PEG only 48%
From the text: Evaluation of retinal neurodegeneration: Retina flat-mounts and explants were immunolabeled for the neuronal marker, NeuN (Millipore), as previously described in Shosha, et al., Cell death & disease, 7:e2483-e (2016). Images were collected and analyzed in a blinded fashion using a semi-automated method. Four images per retina flat-mount were taken as Z-stacks in the mid-periphery of each retina petal using an inverted confocal microscope (LSM 780; Carl Zeiss). Three images were taken per explant. NeuN-positive cells were quantified using ImageJ software ‘Batch processing’ function. A prerecorded ImageJ macro code (FIG. 23A-23C) was used for batch processing. The macro was validated every time it was used to make sure it is compatible with the set of images being analyzed. Results from three to four images were averaged to represent neuron density for each retina. Results are presented as % of sham retina or control explant under normoxic conditions. […]
The retinal IR model was mimicked by subjecting retinal explants to oxygen-glucose deprivation/reperfusion (OGD/R) ex vivo (FIG. 19A). An OGD time-response experiment established 3 hours of OGD/21 hours of reoxygenation to be optimal for studying retinal neurodegeneration ex vivo with about 60% neuronal survival as measured by NeuN flat-mount staining (FIG. 19B-19E, 19F).

[5] = OIR retinas, P13 or P17, not statistically significant
[6] = OIR retinas, did not reach statistical significance
[7] = 25 mg/kg i.p. at 3 hours after reperfusion, 24 hours, perfused
[8] = 25 mg/kg i.p. at 3 hours and day 4, day 7, no perfusion

B1: PEG-A1: recombinant human arginase (rhArg) covalently attached to methoxy polyethylene glycol (mPEG-SPA; MW 5,000) via succinamide propionic acid (SPA) linker (protein, UniProt P05089 1-322, looked up)
Arginase-1: MSAKSRTIGIIGAPFSKGQPRGGVEEGPTVLRKAGLLEKLKEQECDVKDYGDLPFADIPNDSPFQIVKNPRSVGKASEQLAGKVAEVKKNGRISLVLGGDHSLAIGSISGHARVHPDLGVIWVDAHTDINTPLTTTSGNLHGQPVSFLLKELKGKIPDVPGFSWVTPCISAKDIVYIGLRDVDPGEHYILKTLGIKYFSMTEVDRLGIGKVMEETLSYLLGRKKRPIHLSFDVDGLDPSFTPATGTPVVGGLTYREGLYITEEIYKTGLLSGLDIMEVNPSLGKTPEEVTRTVNTAVAITLACFGLAREGNHKPIDYLNPPK
modifications: mPEG-SPA 5 kDa conjugate
notes: recombinant human arginase (rhArg) covalently attached to methoxy polyethylene glycol (mPEG-SPA; MW 5,000) via succinamide propionic acid (SPA) linker
[1]; OIR WT retinas
  iNOS mRNA levels: significantly reduced
[1]; OIR retinas
  A1 mRNA: mRNA upregulation
  FGF2 mRNA: mRNA upregulation
[1]; [5]
  IL-6 expression (qPCR): reduced the expression
  MCP1 expression (qPCR): reduced the expression
[1]; OIR retinas, P13 or P17, statistically significant
  TNFα expression (qPCR): reduced the expression
[1]; [6]
  CNTF mRNA: mRNA upregulation
  IL-10 mRNA: mRNA upregulation
[2]; [7]
  anti-PEG immunoreactivity in liver homogenates (Western blot): strong band
  anti-PEG reactivity in retina homogenates, IR-injured retinas: strong anti-PEG reactivity
  anti-PEG reactivity in retina homogenates, sham eyes: faint anti-PEG reactive bands
[2]; [8]
  PEG distribution within the retina (flat-mount immunolabeling), IR-injured retinas: more diffuse signal
  PEG distribution within the retina (flat-mount immunolabeling), sham retinas: restricted to a vessel-like network
[3]
  penetration into brain or sham contralateral retina/optic nerve after ONC: not into the brain or sham contralateral retina/optic nerve
  penetration into retina/optic nerve tissue after ONC: effective penetration
[4]
  neuronal survival of retina explants (NeuN): 73%
